From the supplement of paper PMC10065799, “High-throughput profiling of sequence recognition by tyrosine kinases and SH2 domains using bacterial peptide display” (eLife, 2023)

What was measured:
[1] = molecular target: c-Src SH2; assay: SH2 binding enrichment of the phosphorylated peptide, bacterial display (enrichment ratio); higher = better substrate or ligand; peptides without Tyr show the background
[2] = molecular target: SHP2-C SH2; assay: as above
[3] = molecular target: Grb2 SH2 (UniProt P62993); assay: as above
[4] = molecular target: Jak2 (UniProt O60674); assay: phosphorylation enrichment, bacterial display (enrichment ratio); higher = better substrate or ligand; peptides without Tyr show the background
[5] = test system: c-Abl (mouse); assay: as above
[6] = molecular target: EPHB2 (UniProt P29323); assay: as above
[7] = test system: AncSZ; assay: as above
[8] = test system: Fer (mouse); assay: as above
[9] = test system: c-Src; assay: as above
[10] = molecular target: Fyn (UniProt P06241); assay: as above
[11] = molecular target: Fes (UniProt P07332); assay: as above
[12] = molecular target: EPHB1 (UniProt P54762); assay: as above
[13] = molecular target: FGFR3 (UniProt P22607); assay: as above
[14] = molecular target: MERTK (UniProt Q12866); assay: as above
[15] = molecular target: Hck (UniProt P08631); assay: as above
[16] = molecular target: FGFR1 (UniProt P11362); assay: as above
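Throughout, for SH2 binding enrichment of the phosphorylated peptide, bacterial display: peptide library displayed on the E. coli surface as eCPX fusions, selected cells deep-sequenced, score is each peptide's frequency after selection divided by its frequency in the input.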
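Throughout, for phosphorylation enrichment, bacterial display: 11-residue human phosphosite peptides and single-mutation variants displayed on the E. coli surface, counted by deep sequencing, each peptide's frequency after selection divided by its frequency in the unselected input library; frequency after pTyr selection over input frequency; kinase dosed for 20-30% of maximal phosphorylation in three min.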

Hck, sequence (P08631 whole entry, looked up): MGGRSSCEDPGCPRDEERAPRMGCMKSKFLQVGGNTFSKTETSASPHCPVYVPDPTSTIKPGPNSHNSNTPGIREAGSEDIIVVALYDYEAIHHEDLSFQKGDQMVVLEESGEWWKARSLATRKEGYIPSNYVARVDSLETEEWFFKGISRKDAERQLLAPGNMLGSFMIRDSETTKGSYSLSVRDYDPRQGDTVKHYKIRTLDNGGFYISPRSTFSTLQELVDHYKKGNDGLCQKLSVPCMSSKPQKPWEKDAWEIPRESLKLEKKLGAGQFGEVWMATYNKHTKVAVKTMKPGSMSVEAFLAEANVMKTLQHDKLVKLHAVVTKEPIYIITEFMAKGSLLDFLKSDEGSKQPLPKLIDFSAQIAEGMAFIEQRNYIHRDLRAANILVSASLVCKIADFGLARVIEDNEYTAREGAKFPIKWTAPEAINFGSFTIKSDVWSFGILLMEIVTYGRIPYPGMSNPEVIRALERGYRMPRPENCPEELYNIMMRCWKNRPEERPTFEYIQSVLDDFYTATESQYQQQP
Jak2, sequence (O60674 whole entry, looked up): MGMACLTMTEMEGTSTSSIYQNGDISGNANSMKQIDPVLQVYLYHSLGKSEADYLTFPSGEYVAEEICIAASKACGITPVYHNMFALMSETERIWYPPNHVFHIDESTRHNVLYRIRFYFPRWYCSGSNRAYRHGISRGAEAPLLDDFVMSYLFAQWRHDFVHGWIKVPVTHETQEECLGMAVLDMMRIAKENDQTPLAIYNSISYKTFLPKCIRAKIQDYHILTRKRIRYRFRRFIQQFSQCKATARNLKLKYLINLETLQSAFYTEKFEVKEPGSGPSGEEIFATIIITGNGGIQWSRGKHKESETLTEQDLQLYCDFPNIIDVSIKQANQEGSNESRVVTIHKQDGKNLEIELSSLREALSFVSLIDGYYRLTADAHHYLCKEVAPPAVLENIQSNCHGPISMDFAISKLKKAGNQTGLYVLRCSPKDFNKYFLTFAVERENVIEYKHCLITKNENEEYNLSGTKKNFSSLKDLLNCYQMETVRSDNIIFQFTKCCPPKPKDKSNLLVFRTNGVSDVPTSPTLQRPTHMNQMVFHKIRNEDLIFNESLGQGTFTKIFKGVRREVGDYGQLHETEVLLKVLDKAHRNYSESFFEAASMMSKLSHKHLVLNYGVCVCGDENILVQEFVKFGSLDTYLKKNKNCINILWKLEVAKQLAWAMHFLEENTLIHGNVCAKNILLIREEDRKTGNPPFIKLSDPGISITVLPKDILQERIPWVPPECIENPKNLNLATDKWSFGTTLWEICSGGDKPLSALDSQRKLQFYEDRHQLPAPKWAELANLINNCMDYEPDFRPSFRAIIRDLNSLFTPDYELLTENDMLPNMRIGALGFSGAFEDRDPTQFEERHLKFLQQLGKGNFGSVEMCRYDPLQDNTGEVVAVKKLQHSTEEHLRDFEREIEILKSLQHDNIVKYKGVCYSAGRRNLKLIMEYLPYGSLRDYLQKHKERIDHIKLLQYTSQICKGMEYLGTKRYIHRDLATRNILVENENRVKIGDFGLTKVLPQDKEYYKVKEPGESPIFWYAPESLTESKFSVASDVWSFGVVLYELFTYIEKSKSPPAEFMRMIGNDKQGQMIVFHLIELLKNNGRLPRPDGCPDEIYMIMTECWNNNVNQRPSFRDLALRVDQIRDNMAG
MERTK, sequence (Q12866 whole entry, looked up): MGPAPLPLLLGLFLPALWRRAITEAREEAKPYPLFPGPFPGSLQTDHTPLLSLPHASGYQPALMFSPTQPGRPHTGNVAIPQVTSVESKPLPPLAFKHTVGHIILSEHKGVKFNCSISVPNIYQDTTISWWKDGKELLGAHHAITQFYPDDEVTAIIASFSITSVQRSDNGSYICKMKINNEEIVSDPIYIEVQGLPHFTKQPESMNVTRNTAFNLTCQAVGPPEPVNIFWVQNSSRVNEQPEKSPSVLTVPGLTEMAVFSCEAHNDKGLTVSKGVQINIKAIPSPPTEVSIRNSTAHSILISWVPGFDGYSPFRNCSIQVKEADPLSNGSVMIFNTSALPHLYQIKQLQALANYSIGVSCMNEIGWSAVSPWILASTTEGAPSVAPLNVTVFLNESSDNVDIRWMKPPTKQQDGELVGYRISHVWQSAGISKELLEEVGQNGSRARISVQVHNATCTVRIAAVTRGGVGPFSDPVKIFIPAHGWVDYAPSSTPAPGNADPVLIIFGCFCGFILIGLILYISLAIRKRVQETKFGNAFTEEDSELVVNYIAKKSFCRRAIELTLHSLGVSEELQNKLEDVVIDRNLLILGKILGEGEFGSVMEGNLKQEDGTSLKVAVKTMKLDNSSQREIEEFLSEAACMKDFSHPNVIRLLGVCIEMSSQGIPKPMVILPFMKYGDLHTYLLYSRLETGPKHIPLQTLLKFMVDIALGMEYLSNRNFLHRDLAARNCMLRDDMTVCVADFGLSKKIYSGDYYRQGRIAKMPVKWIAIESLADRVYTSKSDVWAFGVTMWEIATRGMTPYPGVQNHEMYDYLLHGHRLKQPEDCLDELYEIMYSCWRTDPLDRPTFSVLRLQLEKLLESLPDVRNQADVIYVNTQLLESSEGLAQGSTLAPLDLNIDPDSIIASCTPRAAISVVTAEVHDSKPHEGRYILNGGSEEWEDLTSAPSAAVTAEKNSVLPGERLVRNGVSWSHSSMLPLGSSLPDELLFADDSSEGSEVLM
FGFR1, sequence (P11362 whole entry, looked up, the tested form may be a part): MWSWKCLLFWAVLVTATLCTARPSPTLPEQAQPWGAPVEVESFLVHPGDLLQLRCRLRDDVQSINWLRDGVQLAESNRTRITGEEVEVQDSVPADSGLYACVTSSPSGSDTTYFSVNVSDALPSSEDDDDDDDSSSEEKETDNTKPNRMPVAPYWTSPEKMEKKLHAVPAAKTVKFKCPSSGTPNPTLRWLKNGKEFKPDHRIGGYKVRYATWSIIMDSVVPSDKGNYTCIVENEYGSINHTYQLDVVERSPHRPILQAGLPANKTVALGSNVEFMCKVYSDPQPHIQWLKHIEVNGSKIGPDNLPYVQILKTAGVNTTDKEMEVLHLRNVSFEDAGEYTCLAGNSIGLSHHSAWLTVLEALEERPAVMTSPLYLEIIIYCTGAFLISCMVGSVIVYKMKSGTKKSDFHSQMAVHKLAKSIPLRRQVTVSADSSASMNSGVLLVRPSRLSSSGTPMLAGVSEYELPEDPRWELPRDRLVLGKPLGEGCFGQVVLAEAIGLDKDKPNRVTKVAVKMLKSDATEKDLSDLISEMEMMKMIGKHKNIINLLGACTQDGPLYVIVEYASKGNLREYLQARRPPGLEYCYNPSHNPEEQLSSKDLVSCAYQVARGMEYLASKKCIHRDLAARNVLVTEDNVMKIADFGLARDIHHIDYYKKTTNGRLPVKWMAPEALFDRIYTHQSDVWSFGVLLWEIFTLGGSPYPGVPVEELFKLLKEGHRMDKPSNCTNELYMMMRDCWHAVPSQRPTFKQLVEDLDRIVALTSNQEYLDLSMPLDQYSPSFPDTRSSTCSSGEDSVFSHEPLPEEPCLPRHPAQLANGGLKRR
Fyn, sequence (P06241 whole entry, looked up): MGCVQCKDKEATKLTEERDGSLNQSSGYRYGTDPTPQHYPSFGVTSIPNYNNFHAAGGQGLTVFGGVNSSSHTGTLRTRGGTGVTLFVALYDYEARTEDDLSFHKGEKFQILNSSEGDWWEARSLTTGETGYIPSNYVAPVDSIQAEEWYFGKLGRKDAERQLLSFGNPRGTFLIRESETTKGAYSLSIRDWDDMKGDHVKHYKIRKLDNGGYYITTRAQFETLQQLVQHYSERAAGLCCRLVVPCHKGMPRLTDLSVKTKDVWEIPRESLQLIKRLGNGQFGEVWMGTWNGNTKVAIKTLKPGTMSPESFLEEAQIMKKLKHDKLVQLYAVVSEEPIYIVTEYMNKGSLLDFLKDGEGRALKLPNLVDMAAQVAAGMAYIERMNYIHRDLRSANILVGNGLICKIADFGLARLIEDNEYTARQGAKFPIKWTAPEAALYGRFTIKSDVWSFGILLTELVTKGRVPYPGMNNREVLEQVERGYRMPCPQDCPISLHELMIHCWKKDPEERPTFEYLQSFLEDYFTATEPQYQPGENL
EPHB1, sequence (P54762 whole entry, looked up): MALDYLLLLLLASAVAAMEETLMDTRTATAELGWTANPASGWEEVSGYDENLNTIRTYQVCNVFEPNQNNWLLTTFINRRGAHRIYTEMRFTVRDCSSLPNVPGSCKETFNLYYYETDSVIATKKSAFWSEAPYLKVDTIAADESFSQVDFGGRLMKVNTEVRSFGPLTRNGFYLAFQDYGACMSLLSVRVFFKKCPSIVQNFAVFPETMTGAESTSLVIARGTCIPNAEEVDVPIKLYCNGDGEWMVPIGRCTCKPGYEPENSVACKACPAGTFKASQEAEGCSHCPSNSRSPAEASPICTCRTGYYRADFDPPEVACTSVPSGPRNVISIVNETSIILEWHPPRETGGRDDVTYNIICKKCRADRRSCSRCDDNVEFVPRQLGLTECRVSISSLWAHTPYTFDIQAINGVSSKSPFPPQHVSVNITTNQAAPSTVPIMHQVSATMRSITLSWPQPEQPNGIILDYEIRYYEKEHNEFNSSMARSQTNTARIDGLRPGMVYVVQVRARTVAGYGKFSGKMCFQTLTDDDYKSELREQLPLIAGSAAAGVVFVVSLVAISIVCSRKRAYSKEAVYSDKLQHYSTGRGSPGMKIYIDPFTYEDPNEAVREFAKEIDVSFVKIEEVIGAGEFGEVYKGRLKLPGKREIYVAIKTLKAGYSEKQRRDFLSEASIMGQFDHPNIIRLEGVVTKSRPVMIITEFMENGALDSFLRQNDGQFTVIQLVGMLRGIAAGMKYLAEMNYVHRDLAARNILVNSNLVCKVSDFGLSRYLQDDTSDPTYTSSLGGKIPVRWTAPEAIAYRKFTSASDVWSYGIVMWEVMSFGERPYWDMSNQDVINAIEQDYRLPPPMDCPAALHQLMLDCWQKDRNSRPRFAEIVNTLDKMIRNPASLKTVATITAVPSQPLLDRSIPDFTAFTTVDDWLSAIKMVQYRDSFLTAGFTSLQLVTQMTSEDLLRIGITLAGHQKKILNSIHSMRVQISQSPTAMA

SH2 binding enrichment [1]	SH2 binding enrichment [2]	SH2 binding enrichment [3]	Sequence	phosphorylation enrichment [4]	phosphorylation enrichment [5]	phosphorylation enrichment [6]	phosphorylation enrichment [7]	phosphorylation enrichment [8]	phosphorylation enrichment [9]	phosphorylation enrichment [10]	phosphorylation enrichment [11]	phosphorylation enrichment [12]	phosphorylation enrichment [13]	phosphorylation enrichment [14]	phosphorylation enrichment [15]	phosphorylation enrichment [16]
1.15	0.715	1.04	KNKELYSDLFD [PDE10A_Y300]	0.898	0.918	0.794	1.13	1.84	0.6	0.68	1.14	1.03	0.66	1.35	0.958	0.556
0.4	0.803	0.781	KQELVYTNKKL [OPTN_Y356]	0.791	0.759	0.561	0.69	0.571	0.836	0.441	0.675	0.496	0.474	0.594	0.734	0.47
0.502	0.71	0.787	KRIETYFSKNY [PLP1_Y50_L46R]	0.661	0.532	0.365	0.658	0.377	0.384	0.374	0.748	0.427	0.504	0.392	0.484	0.436
0.569	0.573	0.933	KRLKDYLTVLQ [USP25_Y425]	0.625	0.783	0.412	0.679	0.431	0.403	0.349	0.664	0.422	0.522	0.352	0.322	0.506
0.379	0.521	0.749	KSLFHYRQYSA [CPS1_Y1491]	0.686	0.567	0.602	0.778	0.408	0.493	0.54	0.808	0.527	0.646	0.469	0.512	0.531
1.18	0.768	0.729	KSSDVYVSYDY [SORL1_Y136]	1.08	0.712	1.92	1.16	0.914	4.15	5.35	1.07	1.38	2.64	1.97	2.18	4.12
0.431	0.617	1.32	KTTSGYAGGLS [KRT8_Y419]	0.373	0.456	0.304	0.404	0.422	0.369	0.33	0.496	0.332	0.376	0.3	0.289	0.398
1.36	1.44	1.43	KVALLYKPYFY [POLE_Y100_P99L]	0.977	0.866	0.483	0.987	0.474	0.737	0.457	1.11	0.605	0.693	0.473	0.514	0.483
0.44	0.583	0.685	KVGPGYLGSGG [RET_Y826]	0.457	0.399	0.377	0.438	0.365	0.368	0.42	0.451	0.287	0.392	0.423	0.315	0.334
1.08	0.736	0.702	KYLENYYDLEK [MMP3_Y41_K45E]	1.2	0.818	4.75	1.64	0.664	2.2	5.37	1.3	9.73	6.66	0.819	1.83	8.94
1.25	1.61	1.26	LAARFYNWVSF [FLT4_Y1231_YF]	1.1	0.988	0.605	1.44	2.55	0.82	0.51	1.55	0.69	1.56	1.02	0.476	1.27
1.24	0.66	0.853	LDLSYYPTSSS [EMD_Y182]	5.02	1.41	1.18	2.17	0.835	0.72	0.762	1.81	1.21	3.28	0.955	0.947	3.94
0.669	2.02	1.23	LDMSQYFRLFN [CPT2_Y217]	4.15	0.92	0.531	1.1	0.613	0.601	0.959	1.55	0.539	1.62	0.755	0.885	2.15
0.408	0.771	0.652	LDTIQYSKHPP [SQSTM1_Y433]	1.07	0.75	0.998	1.01	0.583	0.649	0.917	1.73	0.778	1.08	0.792	0.695	0.6
0.591	0.986	1.16	LEEFQYIGELQ [MSH2_Y856_S860L]	2.39	1.33	0.788	1.92	0.656	0.738	0.718	2.04	0.892	1.08	0.716	0.908	0.793
0.505	0.73	0.907	LEFAKYGSLRG [RET_Y809_V804L_YF]	0.593	0.454	0.792	0.567	0.373	0.43	0.398	0.644	0.37	0.459	0.388	0.567	0.316
0.457	0.739	0.9	LENSTYQFICV [CRB1_Y760_R764C_YF]	1.37	1.12	2.39	2.12	8.22	1.84	2.23	1.79	4.2	3.21	2.49	3.46	3.43
1.71	3.39	1.15	LGRTVYADCLA [ABCA4_Y2063_L2060R]	1.76	1.39	1.61	0.983	1.4	0.903	0.902	2.65	1.26	1.37	0.939	0.989	0.918
2.25	0.935	1.13	LHRAHYDLCHT [AHSG_Y314_R317C]	0.88	0.777	0.542	0.814	0.516	0.495	0.401	1.12	0.572	0.648	0.435	0.47	0.513
0.661	0.678	0.699	LIDGFYRLTED [JAK2_Y373_A377E_YF]	1.11	0.974	0.89	1.31	0.613	0.895	0.66	1.54	0.586	0.747	0.549	0.552	0.537
0.499	0.55	0.848	LIFTNYEAGKD [GSTP1_Y112_YF]	1.26	1.24	0.571	1.21	0.453	0.998	0.414	1.39	0.703	0.646	0.675	0.582	0.824
1.16	1.38	1.38	LIFVSYDDWDY [GRIN2A_Y281_S278F]	2.22	1.49	2.52	2.07	4.89	0.914	0.966	2.75	1.8	1.77	0.618	0.774	0.95
0.54	1.04	1.29	LITLVYGCSRQ [TMPRSS6_Y290_S288L]	1.86	0.978	0.876	1.7	0.848	1.08	0.578	1.74	0.644	0.863	0.851	0.721	0.599
0.762	1.31	1.03	LKLIQYHLTQQ [AKAP4_Y554]	1.28	0.646	0.774	0.902	0.711	0.599	0.5	1.34	0.88	0.879	1.15	0.534	0.932
1.11	1.04	1.41	LLIMEYAKYGS [RET_Y806_V804M]	2.18	1.51	1.02	1.39	0.903	0.973	1.03	1.81	1.4	1.19	0.6	0.64	0.999
0.47	0.508	0.65	LLPNAYIFVVQ [L1CAM_Y418_A415P_YF]	1.5	1.06	1.06	1.79	0.731	0.481	0.634	1.66	0.849	1.07	0.561	0.73	0.868
1.85	1.92	1.98	LLVVLYKFRCF [PSEN1_Y154_Y159F_YF]	1.85	1.77	0.773	1.39	0.718	0.937	0.51	1.97	0.685	1.56	1.03	0.622	0.568
0.419	0.595	0.755	LNCDRYSAGLL [PDE6A_Y275_V277A]	0.87	0.673	0.481	0.919	0.432	0.448	0.512	0.834	0.487	0.612	0.378	0.39	0.396
0.727	0.773	0.773	LNRAGYCDALE [MTUS1_Y151_C148R]	1	0.749	0.988	1.06	0.571	0.591	0.537	1.12	0.684	0.994	0.484	0.424	0.686
